# Measurements from patent US20030054411A1, “GPR motifs and uses thereof” (priority 2001, published 2003).
# B1: AGS3: Activator of G-protein Signalling 3; bioactive 74 amino acid fragment isolated in yeast screen, tested as GST fusion (protein)
# chain: MLIKYQSSRIDDQRCPPPDVLPRGPTMPDEDFFSLIQRVQAKRMDEQRVDLAGSPDQEASGLPDPRQQCPPGAS
# modifications: left off: a dimerising Fc or GST
# Legend:
# Giα2 = target: T1, Giα2 (Homo sapiens, UniProt P04899); assay: GST fusion protein interaction with purified Giα2; type: binding; conditions: for interaction with Giα2: GST fusion protein ~300 nM, Gα 60-80 nM
# T1 construct: made in house; host or cells: Sf9 insect cells
# Source text: (A) Bioactivity of cDNA #37 and 53 in yeast strains expressing different Gα subunits. The Gpa1, Giα2Gpa1(1-41), Giα3Gpa1(1-41) and Gα16Gpa1(1-41) yeast strains expressed similar amounts of G-protein as determined by immunoblotting with Gpa1-specific antisera. Each series of experiments include data obtained in the absence of Gα to indicate the signal obtained when the action of Gβγ is not limited by reformation of heterotrimer. Data are presented as the mean±S.E.M of three experiments with duplicate determinations. (B) Interaction of AGS2 and AGS3 with G-proteins. AGS2 and the bioactive AGS3 peptide (74 amino acids) beginning at the first in frame methionine were generated as GST-fusion proteins in bacteria and purified using a glutathione affinity matrix. AGS2 and AGS3 GST fusion proteins were incubated with G-protein subunits (Gα=60-80 nM, Gβγ=40 nM, fusion protein=˜300 nM, total volume=250 ul) for 12 hrs at 4° C. GDP=10 uM. GTPγS=10 uM plus 5 mM MgCl2. Proteins were then adsorbed to glutathione matrix and retained G-protein subunits identified by immunoblotting following gel electrophoresis. Giα2 was generated in Sf9 cells as an amino terminal his6-tagged protein and was detected on membrane transfers using anti-Xpress antisera (Invitrogen). Bovine brain Gβγ was detected on membrane transfers with Gβ antisera. Input refers to 20 ul of the incubation mixture. The results presented are representative of four separate experiments. […] C) Effect of G204A Giα2 substitution and RGS4 on the functionality of AGS proteins. The G204A Giα2 yeast strain and the system used for over expression of RGS4 are described in detail in reference 5. Protein expression was confirmed by immunoblotting. AGS 1 was discovered in a similar screen using a human liver cDNA library (5, 7). WT—wild type strain CY1316/1183 containing Giα2 as described for the original yeast screen. RGS4 was overexpressed in the CY1316/1183 yeast strain. […]
# (§1) Immunoblotting and G-protein interaction assays. […] Bound proteins were detected by immunoblotting membrane transfers with specific antisera. […]
# [1] = test system: Giα3 in DDT1-MF2 cell lysates; assay: GST-AGS3 interaction with endogenous Giα3 in cell lysates; type: binding; conditions: 30 uM GDP or GTPγS
# Source text: A) Sequence of full length rat AGS3. The shaded and overlined sequences represent the tetratricopeptide repeat motif and a repeated segment of amino acids (I-IV), respectively, as discussed in the text. The underlined amino acids indicate the fragment (cDNA #53) isolated in the original yeast screen. B) The four repeat domains in the carboxyl terminus half of AGS3, human LGN, the predicted C. elegans protein and related sequences identified by the motif search program MEME were aligned and used to define a consensus sequence as described in the Examples. Right panel—Interaction of wild type AGS3 and AGS3 mutants with Giα2 in mammalian cell extracts. The AGS3 eDNA isolated in the yeast screen and shown to interact with Gα subunits (FIG. 2B) was modified by site-directed mutagenesis to disrupt conserved residues within the GPR motif. The number of the amino acids altered in the mutant constructs (F8R, Q15A and R23F) refers to their position in the sequence found in the left panel aligning the conserved domains. […] Giα subunits were detected on membrane transfers with the Giα3 antibody and Gβ was detected with an amino terminus antibody. […]
# as §1
# T1 sequence (P04899 whole entry, the tested form may be a part): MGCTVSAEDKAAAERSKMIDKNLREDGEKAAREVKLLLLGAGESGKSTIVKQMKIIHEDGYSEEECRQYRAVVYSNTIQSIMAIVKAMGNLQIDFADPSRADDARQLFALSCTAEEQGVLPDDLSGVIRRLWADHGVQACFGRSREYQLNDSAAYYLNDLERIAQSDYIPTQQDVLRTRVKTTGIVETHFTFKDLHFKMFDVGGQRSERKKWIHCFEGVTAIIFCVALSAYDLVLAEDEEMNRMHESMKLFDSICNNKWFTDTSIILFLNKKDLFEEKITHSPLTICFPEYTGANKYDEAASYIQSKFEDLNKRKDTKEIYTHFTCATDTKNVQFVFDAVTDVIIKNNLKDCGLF
Molecule,interaction with Giα2 (Giα2),preferred nucleotide-bound conformation of Gα (Giα2; GDP 10 uM versus GTPγS 10 uM),nucleotide preference of interaction with Gα in crude cell lysate [1]
"AGS2: Activator of G-protein Signalling 2, protein identical to mouse Tctex1, isolated from NG108-15 cDNA library",did not interact,–,–
B1,specifically bound,preferred the GDP bound conformation,preferentially interacted with GαGDP versus GTPγS
